Assay results from article PMC5415356.

Target: PATJ (UniProt Q8NI35)
Assay: reciprocal co-IP (Flag or HA), immunoblot
Settings: reference: wild type HA-Amot-p130; sites S176

Amot-p130 (Angiomotin) (from UniProt Q8VHG2) S176A
binding against the reference: lost
